For the data set, the system named is Escherichia coli TOP10. Kind of data set: shrunken log2 fold change of peptide-encoding DNA abundance (4.5 h post-induction vs induction); higher = less antimicrobial activity (less host growth inhibition). As to conditions: time post-induction: 4.5 h; library: site-saturation at positions 5, 18, 19, 20.
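Note: peptides expressed intracellularly from a pBAD plasmid library in pooled LB shake-flask culture, induced with 0.3% L-arabinose, DNA abundance read by NGS, three biological replicates, DESeq2 with apeglm shrinkage.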

Turning to RRIRIRPPRLPRPRPRPAFFPRP, the “shrunken log2 fold change” value came to 0.0559.

With RRIRCRPPRLPRPRPRPWADPRP, the “shrunken log2 fold change” value was -0.0237.

On to RRIRQRPPRLPRPRPRPLHHPRP, for which the “shrunken log2 fold change” value was -0.73.

On to RRIRQRPPRLPRPRPRPHHGPRP, for which the “shrunken log2 fold change” value was -0.042.

Consider RRIRWRPPRLPRPRPRPTTKPRP, for which the “shrunken log2 fold change” value was 0.5.

Consider RRIRERPPRLPRPRPRPFWRPRP, for which the “shrunken log2 fold change” value amounted to 0.0935.

On to RRIRFRPPRLPRPRPRPIYEPRP, for which the “shrunken log2 fold change” value was -0.632.

With RRIRKRPPRLPRPRPRPFDRPRP, the “shrunken log2 fold change” value worked out at 0.375.

Turning to RRIRPRPPRLPRPRPRPCRNPRP, the “shrunken log2 fold change” value is -0.176.

As for RRIRPRPPRLPRPRPRPMCDPRP, the “shrunken log2 fold change” value stood at 0.164.

For RRIRDRPPRLPRPRPRPGDIPRP, the “shrunken log2 fold change” value is -0.0568.

RRIRARPPRLPRPRPRPHGCPRP: the “shrunken log2 fold change” value worked out at 0.128.

For RRIRFRPPRLPRPRPRPWFMPRP, the “shrunken log2 fold change” value was -0.609.

With RRIRRRPPRLPRPRPRPTASPRP, the “shrunken log2 fold change” value is 0.146.

RRIRFRPPRLPRPRPRPYIGPRP: the “shrunken log2 fold change” value was -1.25.

As for RRIRVRPPRLPRPRPRPYHFPRP, the “shrunken log2 fold change” value is -0.111.

For the sequence RRIRCRPPRLPRPRPRPLLGPRP, the “shrunken log2 fold change” value stood at 0.201.

As for RRIRDRPPRLPRPRPRPCATPRP, the “shrunken log2 fold change” value stood at 0.00509.

For RRIRPRPPRLPRPRPRPYGNPRP, the “shrunken log2 fold change” value was -0.79.

Take RRIRMRPPRLPRPRPRPDIAPRP: the “shrunken log2 fold change” value worked out at 0.0562.

On to RRIRWRPPRLPRPRPRPFQDPRP, for which the “shrunken log2 fold change” value was -0.496.

RRIRPRPPRLPRPRPRPATIPRP: the “shrunken log2 fold change” value is -0.118.

RRIRERPPRLPRPRPRPTCSPRP: the “shrunken log2 fold change” value is -0.397.

Consider RRIRCRPPRLPRPRPRPCFFPRP, for which the “shrunken log2 fold change” value is 0.392.

On to RRIRCRPPRLPRPRPRPFNTPRP, for which the “shrunken log2 fold change” value was -0.2.

In the case of RRIRNRPPRLPRPRPRPLVNPRP, the “shrunken log2 fold change” value is -0.289.

RRIRKRPPRLPRPRPRPQAEPRP: the “shrunken log2 fold change” value was found to be 0.0754.

Regarding RRIRWRPPRLPRPRPRPLWDPRP, the “shrunken log2 fold change” value stood at 0.235.

As for RRIRNRPPRLPRPRPRPFECPRP, the “shrunken log2 fold change” value is -0.000687.

Consider RRIRRRPPRLPRPRPRPADTPRP, for which the “shrunken log2 fold change” value is 0.423.

Regarding RRIRIRPPRLPRPRPRPPLHPRP, the “shrunken log2 fold change” value turned out to be 0.0232.

With RRIRHRPPRLPRPRPRPQSIPRP, the “shrunken log2 fold change” value was -0.0188.

RRIRCRPPRLPRPRPRPLPAPRP: the “shrunken log2 fold change” value was 0.574.

Regarding RRIRKRPPRLPRPRPRPFYTPRP, the “shrunken log2 fold change” value was -0.109.

As for RRIRQRPPRLPRPRPRPSWIPRP, the “shrunken log2 fold change” value is -0.225.

For RRIRKRPPRLPRPRPRPFFRPRP, the “shrunken log2 fold change” value came to 0.0596.

Regarding RRIRGRPPRLPRPRPRPDYDPRP, the “shrunken log2 fold change” value turned out to be 0.157.

RRIRQRPPRLPRPRPRPHINPRP: the “shrunken log2 fold change” value is -0.921.

Take RRIRHRPPRLPRPRPRPTNVPRP: the “shrunken log2 fold change” value was -0.558.

Turning to RRIRQRPPRLPRPRPRPNRCPRP, the “shrunken log2 fold change” value is -0.0278.

As for RRIRWRPPRLPRPRPRPACRPRP, the “shrunken log2 fold change” value amounted to 0.258.

For the sequence RRIRQRPPRLPRPRPRPYRTPRP, the “shrunken log2 fold change” value came to 0.0218.

For the sequence RRIRGRPPRLPRPRPRPNGEPRP, the “shrunken log2 fold change” value came out at 1.81.

Take RRIRGRPPRLPRPRPRPPCPPRP: the “shrunken log2 fold change” value is 0.86.

For the sequence RRIRLRPPRLPRPRPRPHNYPRP, the “shrunken log2 fold change” value is -0.749.

With RRIRHRPPRLPRPRPRPAPWPRP, the “shrunken log2 fold change” value worked out at 0.0941.

Turning to RRIRARPPRLPRPRPRPWQIPRP, the “shrunken log2 fold change” value is -0.0641.

Regarding RRIRWRPPRLPRPRPRPENYPRP, the “shrunken log2 fold change” value is -0.122.

As for RRIRNRPPRLPRPRPRPIDYPRP, the “shrunken log2 fold change” value is -0.168.

Turning to RRIRHRPPRLPRPRPRPKSLPRP, the “shrunken log2 fold change” value is -0.0347.

Regarding RRIRPRPPRLPRPRPRPHFKPRP, the “shrunken log2 fold change” value was 1.37.

On to RRIRDRPPRLPRPRPRPEWDPRP, for which the “shrunken log2 fold change” value came out at 1.4.

In the case of RRIRHRPPRLPRPRPRPAIWPRP, the “shrunken log2 fold change” value was determined as 0.137.

Take RRIRFRPPRLPRPRPRPNRGPRP: the “shrunken log2 fold change” value was 0.149.

In the case of RRIRIRPPRLPRPRPRPEEVPRP, the “shrunken log2 fold change” value was -0.00172.

With RRIRQRPPRLPRPRPRPAARPRP, the “shrunken log2 fold change” value stood at 0.246.

Turning to RRIRTRPPRLPRPRPRPREMPRP, the “shrunken log2 fold change” value is 0.101.

For RRIRVRPPRLPRPRPRPADWPRP, the “shrunken log2 fold change” value amounted to 0.379.

As to RRIRHRPPRLPRPRPRPMWEPRP, the “shrunken log2 fold change” value is -0.0441.

RRIRKRPPRLPRPRPRPHFHPRP: the “shrunken log2 fold change” value stood at 0.0831.

As to RRIRHRPPRLPRPRPRPNRNPRP, the “shrunken log2 fold change” value was -1.01.

As for RRIRTRPPRLPRPRPRPEDCPRP, the “shrunken log2 fold change” value stood at 0.0288.

Consider RRIRLRPPRLPRPRPRPDVTPRP, for which the “shrunken log2 fold change” value is -0.0876.

For RRIRGRPPRLPRPRPRPSDSPRP, the “shrunken log2 fold change” value was -0.0596.

For RRIRPRPPRLPRPRPRPDAGPRP, the “shrunken log2 fold change” value worked out at 0.442.

As for RRIRRRPPRLPRPRPRPVQCPRP, the “shrunken log2 fold change” value was -0.138.

With RRIRLRPPRLPRPRPRPEPPPRP, the “shrunken log2 fold change” value was found to be 0.53.

Regarding RRIRCRPPRLPRPRPRPSWNPRP, the “shrunken log2 fold change” value is -0.68.

In the case of RRIRYRPPRLPRPRPRPCLHPRP, the “shrunken log2 fold change” value was -0.633.

As for RRIRARPPRLPRPRPRPFYLPRP, the “shrunken log2 fold change” value was -0.515.

Turning to RRIRIRPPRLPRPRPRPAVNPRP, the “shrunken log2 fold change” value was determined as 0.131.

As to RRIRTRPPRLPRPRPRPMYVPRP, the “shrunken log2 fold change” value was 0.0319.

In the case of RRIRYRPPRLPRPRPRPFAKPRP, the “shrunken log2 fold change” value was -0.623.

For RRIRWRPPRLPRPRPRPIQEPRP, the “shrunken log2 fold change” value is -0.0126.

As for RRIRYRPPRLPRPRPRPDHIPRP, the “shrunken log2 fold change” value amounted to 0.0129.

As to RRIRRRPPRLPRPRPRPFLTPRP, the “shrunken log2 fold change” value worked out at 0.228.

Take RRIRYRPPRLPRPRPRPVPNPRP: the “shrunken log2 fold change” value is -0.0518.

As to RRIRIRPPRLPRPRPRPRREPRP, the “shrunken log2 fold change” value is 0.123.

With RRIRRRPPRLPRPRPRPSEAPRP, the “shrunken log2 fold change” value was -0.0295.

As to RRIRMRPPRLPRPRPRPTVVPRP, the “shrunken log2 fold change” value was 0.0159.

On to RRIRMRPPRLPRPRPRPECIPRP, for which the “shrunken log2 fold change” value was 1.61.

For the sequence RRIRLRPPRLPRPRPRPYNRPRP, the “shrunken log2 fold change” value was -0.113.

For the sequence RRIRSRPPRLPRPRPRPVHLPRP, the “shrunken log2 fold change” value was -0.177.

For RRIRCRPPRLPRPRPRPVSMPRP, the “shrunken log2 fold change” value is -0.0967.

Turning to RRIRIRPPRLPRPRPRPPIEPRP, the “shrunken log2 fold change” value stood at 0.0545.

For the sequence RRIRFRPPRLPRPRPRPNDHPRP, the “shrunken log2 fold change” value is -0.512.

For RRIRKRPPRLPRPRPRPVMPPRP, the “shrunken log2 fold change” value came out at 0.244.

On to RRIRPRPPRLPRPRPRPDIHPRP, for which the “shrunken log2 fold change” value was -0.458.

As to RRIRHRPPRLPRPRPRPMQIPRP, the “shrunken log2 fold change” value worked out at 0.093.

For RRIRHRPPRLPRPRPRPVREPRP, the “shrunken log2 fold change” value turned out to be 0.522.

On to RRIRKRPPRLPRPRPRPIRHPRP, for which the “shrunken log2 fold change” value stood at 0.132.

With RRIRARPPRLPRPRPRPSKWPRP, the “shrunken log2 fold change” value was -0.101.

Regarding RRIRHRPPRLPRPRPRPPHCPRP, the “shrunken log2 fold change” value was -0.203.

For RRIRARPPRLPRPRPRPDSCPRP, the “shrunken log2 fold change” value worked out at 0.156.

As for RRIRQRPPRLPRPRPRPATPPRP, the “shrunken log2 fold change” value came to 0.331.

For RRIRYRPPRLPRPRPRPSHEPRP, the “shrunken log2 fold change” value is -0.0704.

Consider RRIRNRPPRLPRPRPRPLSHPRP, for which the “shrunken log2 fold change” value is -0.596.

For RRIRCRPPRLPRPRPRPNIAPRP, the “shrunken log2 fold change” value was -0.275.

In the case of RRIRGRPPRLPRPRPRPYARPRP, the “shrunken log2 fold change” value turned out to be 0.416.

Take RRIRWRPPRLPRPRPRPKWMPRP: the “shrunken log2 fold change” value amounted to 0.242.

Consider RRIRSRPPRLPRPRPRPWNYPRP, for which the “shrunken log2 fold change” value came to 0.0149.

RRIRHRPPRLPRPRPRPAREPRP: the “shrunken log2 fold change” value came out at 0.256.

For RRIRKRPPRLPRPRPRPVCSPRP, the “shrunken log2 fold change” value came out at 0.0361.

Turning to RRIRLRPPRLPRPRPRPSYGPRP, the “shrunken log2 fold change” value is -0.585.

Turning to RRIRMRPPRLPRPRPRPHFAPRP, the “shrunken log2 fold change” value worked out at 0.194.

Consider RRIRARPPRLPRPRPRPEQCPRP, for which the “shrunken log2 fold change” value worked out at 0.42.

For the sequence RRIRTRPPRLPRPRPRPEGTPRP, the “shrunken log2 fold change” value is 0.0681.

As to RRIRCRPPRLPRPRPRPTKQPRP, the “shrunken log2 fold change” value is -0.0825.

For the sequence RRIRHRPPRLPRPRPRPTNDPRP, the “shrunken log2 fold change” value is -0.311.

Turning to RRIRPRPPRLPRPRPRPIRDPRP, the “shrunken log2 fold change” value is -0.015.

For RRIRMRPPRLPRPRPRPSWVPRP, the “shrunken log2 fold change” value came out at 0.051.

On to RRIRHRPPRLPRPRPRPLNQPRP, for which the “shrunken log2 fold change” value was -0.17.

With RRIRQRPPRLPRPRPRPKPAPRP, the “shrunken log2 fold change” value stood at 0.357.

For the sequence RRIRKRPPRLPRPRPRPHKMPRP, the “shrunken log2 fold change” value was 0.105.

As to RRIRSRPPRLPRPRPRPRVVPRP, the “shrunken log2 fold change” value is 0.245.

As to RRIRGRPPRLPRPRPRPIVVPRP, the “shrunken log2 fold change” value came to 0.962.

RRIRYRPPRLPRPRPRPMTYPRP: the “shrunken log2 fold change” value is -0.0131.

For the sequence RRIRQRPPRLPRPRPRPAKRPRP, the “shrunken log2 fold change” value turned out to be 0.0228.

For RRIRWRPPRLPRPRPRPDHMPRP, the “shrunken log2 fold change” value is -0.128.

For RRIRYRPPRLPRPRPRPPMDPRP, the “shrunken log2 fold change” value was -0.582.

With RRIRLRPPRLPRPRPRPYTHPRP, the “shrunken log2 fold change” value was -0.925.

Consider RRIRYRPPRLPRPRPRPFKGPRP, for which the “shrunken log2 fold change” value amounted to 0.00253.

Turning to RRIRRRPPRLPRPRPRPQPQPRP, the “shrunken log2 fold change” value was 0.354.

Turning to RRIRLRPPRLPRPRPRPAHFPRP, the “shrunken log2 fold change” value was -0.197.

On to RRIRDRPPRLPRPRPRPPISPRP, for which the “shrunken log2 fold change” value was 0.024.

Values taken from the supplement of paper PMC9112550, “Optimization of the antimicrobial peptide Bac7 by deep mutational scanning” (BMC Biology, 2022).
